Source: patent publication US20250115668A1 (BIOCYTOGEN PHARMACEUTICALS BEIJING, published 2025)
Read-outs that look alike come from different tables or passages of the source. One block for each binder: values may come before it.

Tests used:
[1] = molecular target: T1, Cynomolgus/Rhesus macaque OX40/TNFRSF4/CD134 Protein, His Tag (Cynomolgus/Rhesus macaque); experiment: SPR Biacore 8K, Protein A chip; antibody captured, antigen analyte
T1 construct: Bought recombinant protein; also called fasOX40-His; monkey OX40

[2] = molecular target: T2, Human OX40 protein having a His-Tag (human, UniProt P43489 29-216, limits assumed); experiment: as above
T2 construct: Bought recombinant protein; also called hOX40-His; hOX40; not shown: His tag
T2 sequence (looked up): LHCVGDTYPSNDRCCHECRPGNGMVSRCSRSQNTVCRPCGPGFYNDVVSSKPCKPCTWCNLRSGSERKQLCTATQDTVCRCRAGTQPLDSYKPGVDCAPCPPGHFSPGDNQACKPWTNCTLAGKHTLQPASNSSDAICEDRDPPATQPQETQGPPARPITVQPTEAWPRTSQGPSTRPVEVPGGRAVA

[3] = molecular target: T3, human OX40 expressed on transfected cells (human, UniProt P43489 29-277); experiment: flow cytometry (MFI, anti-hIgG-Fc-Alexa Fluor 647) on HEK293T-hCTLA4-hOX40 cells co-expressing human CTLA4 and human OX40; the bispecific can bind both antigens on the same cell, signal not separable by target
T3 construct: whole, on cells; also called hOX40 on HEK293T-hCTLA4-hOX40 cells; on Jurkat-luc-hOX40
T3 sequence (looked up): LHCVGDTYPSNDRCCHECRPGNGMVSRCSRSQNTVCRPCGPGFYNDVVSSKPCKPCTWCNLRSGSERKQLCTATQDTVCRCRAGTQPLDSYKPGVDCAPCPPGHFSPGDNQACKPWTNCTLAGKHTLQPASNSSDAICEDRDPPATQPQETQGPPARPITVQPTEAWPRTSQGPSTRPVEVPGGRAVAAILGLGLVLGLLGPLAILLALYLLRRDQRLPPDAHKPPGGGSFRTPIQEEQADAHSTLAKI

[4] = molecular target: T4, human CTLA4 expressed on transfected cells (human, UniProt P16410 36-223); experiment: as above
T4 construct: whole, on cells; also called hCTLA4 on HEK293T-hCTLA4-hOX40 cells; on Jurkat-luc-hCTLA4
T4 sequence (looked up): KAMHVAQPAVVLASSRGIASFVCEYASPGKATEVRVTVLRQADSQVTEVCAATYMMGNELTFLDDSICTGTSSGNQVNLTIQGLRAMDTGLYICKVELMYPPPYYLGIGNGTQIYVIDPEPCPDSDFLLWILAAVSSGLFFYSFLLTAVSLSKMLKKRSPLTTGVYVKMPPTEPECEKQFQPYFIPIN

[5] = molecular target: T4, human CTLA4 expressed on transfected …; experiment: flow cytometry (MFI, anti-hIgG-Fc-Alexa Fluor 647) on HEK293T-hCTLA4-hOX40 cells co-expressing human CTLA4 and human OX40
[6] = molecular target: T4, human CTLA4 expressed on transfected …; experiment: as above; remark: listed apart in the source
[7] = molecular target: T5, Human CTLA4 protein having a His-Tag (human, UniProt P16410 37-162, limits assumed); experiment: SPR Biacore 8K, Protein A chip; antibody captured, antigen analyte
T5 construct: Bought recombinant protein; also called hCTLA4-His; hCTLA4; not shown: His tag
T5 sequence (looked up): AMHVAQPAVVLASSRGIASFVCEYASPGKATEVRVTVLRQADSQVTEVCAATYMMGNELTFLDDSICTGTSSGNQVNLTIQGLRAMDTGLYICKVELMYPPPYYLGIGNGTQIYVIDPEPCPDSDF

[8] = molecular target: T4, human CTLA4 expressed on transfected …; experiment: flow cytometry (MFI, anti-hIgG-Fc-Alexa Fluor 647) on HEK293T-hCTLA4-hOX40 cells co-expressing human CTLA4 and human OX40; remark: listed apart in the source
[9] = molecular target: T3, human OX40 expressed on transfected …; experiment: flow cytometry (MFI, anti-hIgG-Fc-Alexa Fluor 647) on HEK293T-hCTLA4-hOX40 cells co-expressing human CTLA4 and human OX40; the bispecific can bind both antigens on the same cell, signal not separable by target; remark: listed apart in the source
[10] = molecular target: T4, human CTLA4 expressed on transfected …; experiment: as above; remark: listed apart in the source
[11] = molecular target: T3, human OX40 expressed on transfected …; experiment: flow cytometry (MFI, anti-hIgG-Fc-Alexa Fluor 647) on HEK293T-hCTLA4-hOX40 cells co-expressing human CTLA4 and human OX40
[12] = molecular target: T2, Human OX40 protein having a His-Tag; experiment: SPR Biacore 8K, Protein A chip; antibody captured, antigen analyte; remark: listed apart in the source

B2: CT-3D2-IgG1 (antibody, V domains shown)
VH: QVQLVESGPGLVKPSETLSLTCTVSGDSIRSSHYYWGWIRQPPGKGLEWIGSIYFNGITYYSPSLKSRVTISVDTSKNQFSLKLTSVTAADTAVFYCARHNNYYDSSGYWYYFDYWGQGTLVTVSS
VL: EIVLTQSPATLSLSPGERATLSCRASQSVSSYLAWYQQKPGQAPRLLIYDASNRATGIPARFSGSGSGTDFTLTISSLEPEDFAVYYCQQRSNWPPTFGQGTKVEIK
notes: Human anti-CTLA4 antibody from RenLite mice
EC50 (read off the curve) [5]: ~2 µg/mL
EC50 (read off the curve) [6]: ~2 µg/mL
Kd [7]: 17.1 nM
koff [7]: 0.00079 s⁻¹
kon [7]: 46200 M⁻¹ s⁻¹
EC50 (read off the curve) [8]: ~2 µg/mL

B3: OX-4C8-CT-3D2-IgG1-SI (bispecific antibody, V domains shown)
VH 1: QVQLVESGPTLVKPTQTLTLTCTFSGFSLSTTRVGVGWIRQPPGKALEWLALIYWDDDKRYSPSLKNRLTLTKDTSKNQVVLTMTNMDPVDTATYYCAHFGSGTYYNVDYWGQGTLVTVSSAS
VH 2: B2 VH
VL: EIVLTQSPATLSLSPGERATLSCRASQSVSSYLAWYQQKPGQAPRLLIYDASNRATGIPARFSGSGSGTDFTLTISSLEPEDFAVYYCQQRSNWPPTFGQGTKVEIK
notes: 1+1 knobs-into-holes human IgG1 with common light chain; SI mutations (S239D, I332E, EU)
Kd [1]: 6.4 nM
koff [1]: 0.0037 s⁻¹
kon [1]: 578000 M⁻¹ s⁻¹
Kd [2]: 17.6 nM
koff [2]: 0.00258 s⁻¹
kon [2]: 147000 M⁻¹ s⁻¹
EC50 (read off the curve) [9]: ~2 µg/mL
EC50 (read off the curve) [10]: ~2 µg/mL

The next lines start with the values.

Kd [1]: 163 nM
koff [1]: 0.001 s⁻¹
kon [1]: 6170 M⁻¹ s⁻¹
Kd [2]: 182 nM
koff [2]: 0.00169 s⁻¹
kon [2]: 9260 M⁻¹ s⁻¹
EC50 (read off the curve) [3]: ~1 µg/mL
EC50 (read off the curve) [4]: ~1 µg/mL
B1: OX-H7-CT-3D2-IgG1-SI (bispecific antibody, V domains shown)
VH 1: QITLKESGPTLVKPAQTLTLTCTFSGFSLSTSGVGVGWIRQPPGKALEWLALIYWDDDKLYSPSLKSRLTITKDTSKNQVVLAMTNMDPVDTATYYCAHSQLGRDDYWGQGTLVTVSS
VH 2: B2 VH
VL: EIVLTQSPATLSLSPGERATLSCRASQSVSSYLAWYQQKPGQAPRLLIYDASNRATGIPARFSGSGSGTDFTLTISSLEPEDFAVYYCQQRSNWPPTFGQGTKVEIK
notes: SI mutations (S239D, I332E, EU)

EC50 (read off the curve) [11]: ~0.3 µg/mL
Kd [12]: 65.4 nM
koff [12]: 0.00738 s⁻¹
kon [12]: 113000 M⁻¹ s⁻¹
B4: OX-4C8-IgG1 (antibody, V domains shown)
VH: QVQLVESGPTLVKPTQTLTLTCTFSGFSLSTTRVGVGWIRQPPGKALEWLALIYWDDDKRYSPSLKNRLTLTKDTSKNQVVLTMTNMDPVDTATYYCAHFGSGTYYNVDY
VL: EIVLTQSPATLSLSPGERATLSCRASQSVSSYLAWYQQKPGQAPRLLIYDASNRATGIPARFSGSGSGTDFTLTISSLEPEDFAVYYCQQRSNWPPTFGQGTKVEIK
notes: Human anti-OX40 antibody; IgG1 constant regions
